{"source": "paper PMC3524116", "target": "Recombinant His6-tagged UVI31+ protein from C. reinhardtii (C. reinhardtii)", "assay": "SEC; gel filtration on a Sephadex G75 column in 50 mM sodium phosphate (pH 7.6), 50 mM NaCl; major peak at 87 ml (monomer), small hump at 68-75 ml (dimer)"}
{"substance": "Recombinant His6-tagged UVI31+ protein from C. reinhardtii (natural protein)", "values": [{"measurement": "stoichiometry N", "value": 2}]}
